Experimental data taken from patent US20250026834A1 (ZOETIS SERVICES, published 2025).

Target: NGF (target protein of the anti-NGF antibodies mAb2 and mAb3)
Experiment: cell-based or functional assay

Chain of NGF (target protein of the anti-NGF antibodies mAb2 and mAb3) (P01138 122-241): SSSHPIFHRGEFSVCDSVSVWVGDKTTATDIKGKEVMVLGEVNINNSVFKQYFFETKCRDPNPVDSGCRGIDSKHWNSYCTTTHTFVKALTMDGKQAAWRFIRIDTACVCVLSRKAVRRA

B1: mAb3 (felinized anti-NGF, ZTS-768) IgG1a WT (antibody, V domains shown)
VH: DVQLVESGGDLVKPGGSLRLTCVASGFTYSNYWMHWVRQAPGKGLQWVARIDPYGGGTKHNEKFKRRFTISRDNAKNTLYLQMNSLKTEDTATYYCVRSGYDYYFDVWGQGTLVTVSS
VL: EIQMTQSPSSLSASPGDRVTITCRASENIYSFLAWYQQKPGKVPKLLIYNANTLAEGVPSRFSGSGSGTDFTLTISSLEPEDAATYYCQHHFGTPFTFGSGTKLEIKR
B1 was tested, and the “IC50 (cell based potency assay)” value was 0.036 nM.
